Among the data in patent US20180222961A1 (IMMATICS BIOTECHNOLOGIES, published 2018) are peptide exchange yield values, retold here.

The target in the assay is T1, HLA-B*07:02 (human).
T1 construct: also called peptide-receptive MHC molecules
In words: UV-exchange b2m ELISA; exchange-yield grade. The text has this:
Candidate peptides for T cell based therapies according to the present invention were further tested for their MHC binding capacity (affinity). The individual peptide-MHC complexes were produced by UV-ligand exchange, where a UV-sensitive peptide is cleaved upon UV-irradiation, and exchanged with the peptide of interest as analyzed. Only peptide candidates that can effectively bind and stabilize the peptide-receptive MHC molecules prevent dissociation of the MHC complexes. To determine the yield of the exchange reaction, an ELISA was performed based on the detection of the light chain (β2m) of stabilized MHC complexes. The assay was performed as generally described in Rodenko et al. (Rodenko et al., 2006).
96 well MAXISorp plates (NUNC) were coated over night with 2 ug/ml streptavidin in PBS at room temperature, washed 4× and blocked for 1 h at 37° C. in 2% BSA containing blocking buffer. Refolded HLA-A*02:01/MLA-001 monomers served as standards, covering the range of 15-500 ng/ml. Peptide-MHC monomers of the UV-exchange reaction were diluted 100-fold in blocking buffer. Samples were incubated for 1 h at 37° C., washed four times, incubated with 2 ug/ml HRP conjugated anti-β2m for 1 h at 37° C., washed again and detected with TMB solution that is stopped with […]. Absorption was measured at 450 nm. Candidate peptides that show a high exchange yield (preferably higher than 50%, most preferred higher than 75%) are generally preferred for a generation and production of antibodies or fragments thereof, and/or T cell receptors or fragments thereof, as they show sufficient avidity to the MHC molecules and prevent dissociation of the MHC complexes.
On to LPSDSHFKITF, for which the peptide exchange yield fell in the range of 50 to 75%.

As for KPSESIYSAL, the peptide exchange yield lay within 50 to 75%.

In turn, LPMWKVTAF returned a peptide exchange yield of 50 to 75%.

Consider APRPASSL, for which the peptide exchange yield was 50 to 75%.

APRWFPQPTVV yielded a peptide exchange yield of 50 to 75%.

Molecule YPLRGSSIFGL had a peptide exchange yield of 50 to 75%.

For SPHPVTALLTL, the peptide exchange yield lay within 50 to 75%.

In turn, YPGFPQSQY returned a peptide exchange yield of 20 to 50%.

Take KPGPEDKL: the peptide exchange yield is 20 to 50%.

Molecule RVRSRISNL came in with a peptide exchange yield of 50 to 75%.

Turning to VPNQSSESL, the peptide exchange yield was in the range of 50 to 75%.

SPRRSPRISF: the peptide exchange yield fell in the range of 20 to 50%.

Molecule LPYGPGSEAAAF gave a peptide exchange yield of 50 to 75%.

In turn, YPLRGSSI came in with a peptide exchange yield of 20 to 50%.

For the molecule SPQSMSNTL, the peptide exchange yield was in the range of 50 to 75%.

As to SPGATSRGTL, the peptide exchange yield lay in the range of 50 to 75%.

FPDNQRPAL showed a peptide exchange yield of 50 to 75%.

Consider RPAMNYDKL, for which the peptide exchange yield is 20 to 50%.

RPLFYVVSL had a peptide exchange yield of 20 to 50%.

APVIFSHSA registered a peptide exchange yield of 20 to 50%.

In turn, RPLFQKSSM returned a peptide exchange yield of 50 to 75%.

In the case of APLPRPGAVL, the peptide exchange yield is 50 to 75%.

SPASRSISL: the peptide exchange yield fell in the range of 50 to 75%.

In turn, SPSPVSSTL came in with a peptide exchange yield of 50 to 75%.

In the case of SPSPVTSTL, the peptide exchange yield was in the range of 50 to 75%.

The molecule TPWAESSTKF returned a peptide exchange yield of 20 to 50%.

SPTFHLTL yielded a peptide exchange yield of 50 to 75%.

Regarding VPDSGATATAY, the peptide exchange yield lay in the range of 20 to 50%.

Molecule LPRPGAVL registered a peptide exchange yield of 50 to 75%.

Consider SPAMTSTSF, for which the peptide exchange yield fell in the range of 20 to 50%.

The molecule SPRTEASSAVL registered a peptide exchange yield of 50 to 75%.

Take YPTEHVQF: the peptide exchange yield lay in the range of 20 to 50%.

RPIVPGPLL: the peptide exchange yield lay within 50 to 75%.

As to GPREALSRL, the peptide exchange yield fell in the range of 50 to 75%.

On to TVREASGLL, for which the peptide exchange yield lay in the range of 50 to 75%.

Consider TPGLRETSI, for which the peptide exchange yield fell in the range of 20 to 50%.

As for RVEEVRALL, the peptide exchange yield fell in the range of 50 to 75%.

SPMATTSTL gave a peptide exchange yield of 50 to 75%.

For the molecule YPRTITPGM, the peptide exchange yield lay within 50 to 75%.

Take IPMAAVKQAL: the peptide exchange yield is 50 to 75%.

Turning to KPYGGSGPL, the peptide exchange yield was in the range of 50 to 75%.

FPQSQYPQY had a peptide exchange yield of 50 to 75%.

APAAWLRSA returned a peptide exchange yield of 20 to 50%.

For APRAGSQVV, the peptide exchange yield lay in the range of 50 to 75%.

In turn, YPLRGSSIF came in with a peptide exchange yield of 50 to 75%.

YPEGAAYEF yielded a peptide exchange yield of 20 to 50%.

Consider MPNLPSTTSL, for which the peptide exchange yield was in the range of 50 to 75%.

Molecule SPFSAEEANSL gave a peptide exchange yield of 50 to 75%.

Regarding APTEDLKAL, the peptide exchange yield lay in the range of 50 to 75%.

Take HPGSSALHY: the peptide exchange yield was 20 to 50%.

On to IPGPAQSTI, for which the peptide exchange yield lay in the range of 20 to 50%.

The molecule SPMTSLLTSGL displayed a peptide exchange yield of 50 to 75%.

Molecule LPRGPLASLL yielded a peptide exchange yield of 50 to 75%.

Turning to IPRPEVQAL, the peptide exchange yield was 50 to 75%.

SPNKGTLSV: the peptide exchange yield was in the range of 50 to 75%.

For the molecule SPSSPMSTF, the peptide exchange yield lay in the range of 20 to 50%.

FPRLVGPDF registered a peptide exchange yield of 50 to 75%.

Molecule RPAPFEVVF yielded a peptide exchange yield of 50 to 75%.

With VPVYILLDEM, the peptide exchange yield lay in the range of 20 to 50%.

Turning to RVRSTISSL, the peptide exchange yield was 50 to 75%.

Take KPGTSYRVTL: the peptide exchange yield was in the range of 50 to 75%.
